Experimental data published in the nanobody polyreactivity screen of Harvey et al. (2022).

Assay: yeast display, Sf9 membrane polyspecificity reagent, FACS + sequencing; frameworks hold sequencing errors
In short: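 A synthetic nanobody library was expressed on Saccharomyces cerevisiae BJ5465 by galactose induction for 36–48 hours. The library was stained for 1 hour at 4 °C with 10% biotinylated, detergent-solubilized Sf9 membrane reagent and enriched with streptavidin microbeads before FACS. Low and high (top ~1%) gates were set on anti-HA fluorescence for expression and streptavidin fluorescence for reagent binding, and each polyreactivity label reflects the gate of origin.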

Sequence | polyreactivity (PSR sort gate)
QVQHVESGGGLVQAGGSLRLSCAASGRIFSYYAMGWYRQAPGKERELVAVISRRGDNTYYADSVKGRFTISRDNAKKTVYLQMNSLKPEDTAVYYCAARFGYLTFYSSGYYWGQGTQVTVSS | high polyreactivity
QVQHVESGGGLVQAGGSLRLSCAASGRIFYGNAMGWYRQAPGKERELVAGITRSSGTSTDYADSVKGRFTISRDNAKNSVYLQMNSMKPEDCAVYYCAAPPDSYYFYKVPVVPYDYWGQGTQVTVSS | low polyreactivity
QVQHVESGGGLVQAGGSLRLSCAASGRTFAHYAMGWYRQAPGKERELVAAISWGGTRTYYADSVKGRFTISRDNAKNTVYLQMNSLKPEDTAVYYCAADYGYQDDYWGQGTQVTVSS | low polyreactivity
QVQHVESGGGLVQAGGSLRLSCAASGRTFGLNAMGWYRQAPGKERELVAAISGSGGRTYYADSVKGRFTISRDNAKNTVYLQMNSLKPEDTAVYYCARVPSGQLEYDYWGQGTQVTVSS | high polyreactivity
QVQHVESGGGLVQAGGSLRLSCAASGRTFGWYTMGWYRQAPGKEREFVAAISSSDTSTYYADSVKGRFTISRDNAKNTVYLQMNSLKPEDTAVYYCAADPPSWQWFVGYSYDYWGQGTQVTVSS | low polyreactivity
QVQHVESGGGLVQAGGSLRLSCAASGRTFTFNAMGWYRPAPGKERELVARIDWRGITYADSVKGRFTISRDNAKNTVYLQMNSLKPEDTAVYDCAAVWLHISYYGKYDYWGQGTQVTVSS | low polyreactivity
QVQHVESGGGLVQAGGSLRLSCAASGRTFTPNAMGWYRPPPGKVREMVAAIDWRGGRTYYADSVKGRFTISRDNAKNTVYLQKNSLKPEDTAVYYCAARVDGYQYKSAGYSYGVFYWGQGTQVTVSS | low polyreactivity
QVQHVESGGGLVQAGGSLRLSCAASGRTLYNYAMGWYRQAPGKEWELVAAISGSGGSTYYADSVKGRFTISRDNAKNTVYLQMNSLKPEDTEVYFCAKYRGIYPDVRGTYYWGQGTQVTVSS | high polyreactivity
QVQHVESGGGLVQAGGSLRLSCAASGRTYVNYVMGWYRQAPGKEREFVAAISRNGGSTYYADSVKGRFSISRDNAKYTFYLQMNSLKPEDTAVYYCAARPRRRYYGSDSWGQGTQVTVSS | high polyreactivity
QVQHVESGGGLVQAGGSLRLSCAASGSIFDRNAMGRYRQAPGKERELVAAISGGDSTYYADSVKGRFTISRDNAKNTVYLQMNSLKPEDTAVYYCNVDFKTEYDYWGQGTQVTVSS | low polyreactivity
QVQHVESGGGLVQAGGSLRLSCAASGSIFDVYTMGWYRQAPGKQRELVAAINTGGGSTYYADSVKGRFTISRDNAKNTVYLQMISLKPEDTAVYYCAASVYHYGPLYYWGQGTQVTVSS | low polyreactivity
QVQHVESGGGLVQAGGSLRLSCAASGSIFIPYAMGWSRQPPGKERELVAAISWSGSSTYYADSVKGRFTISRDNAKNTVYLQMISLKPEDTAVYYCAAYNAYRRGYDYWGQGTQVTVSS | high polyreactivity
QVQHVESGGGLVQAGGSLRLSCAASGSIFNTYTMGWYRQAPGKERELVAAISSGGSTYYADSVKGRFSISRDNAKNTVYLHMNSLKPEDTAVYYCAAYGHSFQIYDYWGQGTQVTVSS | low polyreactivity
QVQHVESGGGLVQAGGSLRLSCAASGSIFPHYAMGWYRQAPGKERELVAAISYSGGRTYYADSVKGRFTISRDNAKNTVYLQMNSLKPEDTAVYYCAKPERVLYHGDYWGQGTQVTVSS | low polyreactivity
QVQHVESGGGLVQAGGSLRLSCAASGSIFRFYAMGWYRQAPGKERELVAAISWSGGSTYYADSVKGRFTISRDNAKNTVYLQMNSLKPEDTAVYYCNTRYYGGFDSWGQGTQVTVSS | high polyreactivity
QVQHVESGGGLVQAGGSLRLSCAASGSIFRRNAMGRYRQAPGKVRELVAGISGGGSTYYADSVKGRFTISRDNAKNTVYLQMNSMKPEDTAVYYCATDKHYRSAGFDYWGQGTQVTVSS | low polyreactivity
QVQHVESGGGLVQAGGSLRLSCAASGSIFRYYAMGWYRQAPGKERELVAASTSGGSTSYADSVKGRFTISRDNAKNTVYLQMNSLKPEDTAVYYCAKRSRHNKYYYWGQGTQVTVSS | high polyreactivity
QVQHVESGGGLVQAGGSLRLSCAASGSIFYTYPMGWNRQAPGKERELVAAISFSDGDTYYADSVKGRFTISRDNAKNTVYLQMIRLKPVDTAVYYCNDYVYLPNYPYDYWGQGTHVTVSS | low polyreactivity
QVQHVESGGGLVQAGGSLRLSCAASGSIIYRNAMGWSRQPPGKERELVAAISWSAARTYYADSVKGRFTISRDNAKNTVYLQMNSQKPEDTAVYYCNKAARFTSHQGYDSWGQGTQVTVSS | high polyreactivity
QVQHVESGGGLVQAGGSLRLSCAASGSILFKYAMGWSRQAPGQESELVATITSGGSTYYADSVKGRVTISRDNAKNTVYLQMNSLKPEDTAVYYCATGQYYYDGIVAFFELDYWGQGTQVTVSS | low polyreactivity
QVQHVESGGGLVQAGGSLRLSCAASGSLFYGNTMGWARQAPGKERELVAAISNDDSRTYYADSVKGRFTISRDNAKNTVYLQMNSLKPEDTAVYYSATRGYPYRYRQTLNYWGQGTQVTVSS | high polyreactivity

Sequence | polyreactivity (PSR sort gate)
QVQHVESGGGLVQAGGSLRLSCAASGSTFAINAMGGYRQAPGKERELVAAISSSGSTNYADSVKGRFTISRDNAKNTVYLQMNSLKPEDTAVSYCAADRVWGTPQAYVPSQFDYWGQGTQVTVSS | low polyreactivity
QVQHVESGGGLVQAGGSLRLSCAASGSTFDAYAMGWYRQAPGKERELVAAISWSDTTTYYADSVKGRFTISRDTAKNTVYLQMYSLKPEDTAVSYCADEYYFTDGSYTSDYWGPGTQVTVSS | high polyreactivity
QVQHVESGGGLVQAGGSLRLSCAASGSTFFRYAKGWYRQAPGTERELVAAISYSGDSTYYADSVKGRFTISRDNAKNTVYLQMNSLKPEDSAVYYCNAVYFRYRYNYWGQGTQVTVSS | high polyreactivity
QVQHVESGGGLVQAGGSLRLSCAASGSTFGRYGMGWYRQAPGTERELVAAISRGGGTNYADSVKGRFTISRDNAKKTVYLQMNSLKPEDTAVYYCNARWYYALYDYWGQGTQVTVSS | low polyreactivity
QVQHVESGGGLVQAGGSLRLSCAASGSTFGWYAMGWYRQAPGKVRELVAAITRRGTRTYYADSVKGRFTISRDNAKNTVYLQMNSLKPEDTAVYYCNARGFPGKFGYWGQGTQVTVSS | high polyreactivity
QVQHVESGGGLVQAGGSLRLSCAASGSTFHLYAIGWYRQAPGKEREFVAAIRGRGGNTYADSVKGRFTISRDNAKNTVYLQMNSVKPEDTAVYSCAAPLLRDLRSPYSYNYWGQGTQVTVSS | low polyreactivity
QVQHVESGGGLVQAGGSLRLSCAASGSTFKHNAMGWSRQAPGKERELVAGISWGGSSTYYADSVKGRFTISRDKAKNTVYLQMNSLKPEDTAVYYCAKGGYRRYGYDYWGQGTQVTVSS | low polyreactivity
QVQHVESGGGLVQAGGSLRLSCAASGSTFQMYAMGWYRQAPGKEMELVASISWSGGSTYYAVSVMGRFTISRDNAKNTFYLQMNSLKPEDTAVYYCKADFWWRYRPGAVFRSYGYWGQGTQVTVSS | low polyreactivity
QVQHVESGGGLVQAGGSLRLSCAASGSTFSHYAMGWYRQAPGKERELVASINSAGSTNYADSVKGRFTISRDNAKNTVYLQMNSLKPEDTAVYYCNTEVQVYSYNYWGQGTQVTVSS | low polyreactivity
QVQHVESGGGLVQAGGSLRLSCAASGSTFYENAMGWYRQAPGKERELGAGIRSTGRTYYADSVKGRFTISRDNAKNTVYIQMNSLKPEDTAVYYCAAYVGTYGEYDYWGQGTQVTVSS | low polyreactivity
QVQHVESGGGLVQAGGSLRLSCAASGSTIQNNAMGWYRQPPGKERELVAAMNNGGSTNYADSVKGRFTISRDNAKNTVYLQMNSLIPEDSAGYYCNTDRHHADYQWGWPSAFEEFGYWGLGTQVTVSS | low polyreactivity
QVQHVESGGGLVQAGGSLRLSCAASGSTLSSYAMGWSRQAPGKERELVAAINSSGGRTYYADSVKGRFTISRDNAKNTVYLKMNSVKPEDTEVYYCAATRGRYREDEDYWGQGTQVTVSS | high polyreactivity
QVQHVESGGGLVQAGGSLRLSCAASGSTSYPYAMGWYRQAPGKERELVATITSGGRTNYADSVKGRFTISRDNAKNTVYLQMNSLKPEDTAVYYCNARFYRWRSYGYDYWGQGTQVTVSS | high polyreactivity
QVQHVESGGGLVQAGGSLRLSCAASGTTFYFYAMGWYRQAPGKERELVAAITYSGGSTYYADSVKGRFTISRDNAKNTVYLQMNSLKPEDTAVYYCAAQWRRHSTRSRYYYWGQGTQVTVSS | high polyreactivity
QVQHVESGGGLVQAGGSLRLSCAASGVIIIGNAVGWYREAPVKEWEFVASIRGVGSTNYADSVKGRFTISRDNAKNTVYVQMNSLKPADSAVYYCATSVDRALYTQTRGDYEYWGQGTQVTVSS | low polyreactivity
QVQHVESGGGLVQAGGSLRLSCAASGYTFTINTMGWYRQAPGKERELVAAITWRGGSTYYADSVKGRFTISRDNAKNTVYLQMNSLKPEDSAVYYCNKDYYITTTTFDYWGQGTQVTVSS | low polyreactivity
QVQHVESGGGLVQAGGSLRLSCAATGRTFRHYAMGWYRLAPGKERELVAAISGSGGRTYYADSVKGRFTISRDNAKNTVYLQMISLKPEDTAVYYCNAYTWTYGEYEYWGQGTQVTVSS | high polyreactivity
QVQHVESGGGLVQAGGSLRLSCAAYGSIFGWYGMGWYRQAPGKERELVAAITRGGSTYYADSVKGRFTISRDNAKNTVYLQMISLKPEDTAVYYCAKRSGQQYGGYGYWGQGTHVTVSS | low polyreactivity
QVQHVESGGGLVQAGGSLRLSCAAYGSTFGVNAMGWYRQAPGKEREFVAAITWSSTSTYYADSVKGRFTISRDNAKNTVYLQMNSLKPEDTAVYYCAARQRIYRHYAYGYWGQGTQLTVSS | high polyreactivity
QVQHVESGGGLVQAGGSLRLSCASSGSIFYFYAKGWYRQAPGKERELVAAISWSGGSTYYADSVKGRFTISRDNAKNTFYLQMNSLKPEDTAVYYCNAADYWYWENDYWGQGTQVTVSS | low polyreactivity
